Test: Circular dichroism (CD) spectral analysis of peptide conformation, % helicity
Assay type: physicochemical
Method: According to this example, circular dichroism (CD) experiments were performed to determine the conformation changes of VIP in phospholipid micelles, pH and temperature changes, and in aqueous solutions. CD spectra were recorded on a JASCO J-700 spectropolarimeter using a fused quartz cell of 1 cm pathlength. Spectra in 0.15 N saline (pH 6.8) and 5 mM Hepes buffer (pH 7.4) were measured at a peptide concentration of 4 μM and at a lipid concentration of 1 mM. The effects of CaM, pH (6.8 or 7.4) and temperature (25° C. or 37° C.) on VIP conformation were also studied. The conformation of VIP fragments was likewise studied. All measurements were carried out at room temperature (˜25° C.) unless otherwise noted. A bandwidth of 1.0 nm and a step resolution of 0.5 nm were used to collect an average of 9 accumulations/sample at the […] (200-260 nm wavelength). The peptide spectra shown have the background buffer scans, and empty vesicle scans subtracted and were smoothed using the noise reduction function. The temperature during spectral analysis was maintained by using a circulating water bath attached to a jacket surrounding the fused quartz CD cell. The percent helical characterization of VIP was determined by a method of Haghjoo et al., Peptide Research 9 (6):327-331 (1996): % helicity=[−(θ208+4000)/29 000]*100 and are reported in table 1.
According to the example, CD was used to determine the conformation of VIP in saline, Hepes buffer and phospholipid micelles at room temperature and at 37° C. The CD spectra analysis was performed after 13 μg of human VIP incubated with 1 ml PEG-DSPE (1 μmol) micelles for 30 min at room temperature as determined by preliminary studies. A bandwidth of 1.0 nm and a step resolution of 0.5 nm were used to collect an average of 9 accumulations/sample at near UV range (200-260 nm). The temperature was maintained during spectral analysis by a circulating water bath attached to a jacket surrounding the fused quartz CD cell. The evaluation of VIP molecule conformation in SSM by using circular dichroism was successful because the distortion caused by spherical particles was eliminate due to the small size and univesicular structure of the SSM. […] The phospholipid micelles were ideal in our study of VIP conformation since it provided a hydrophobic core similar to the phospholipid bilayer of the SSL. Moreover, both the negative charge, and the hydrophilic layer provided by the PEG mimic the conditions of our SSL and make it possible to infer the VIP conformational results.
According to this example, the method of example 4 was repeated to determine the conformation of VIP in saline and phospholipid micelles plus calmodulin (CaM). CD spectra measurements were performed after 13 μg/ml of VIP was incubated with 1.0 μmol/ml of phospholipid micelles for 30 min followed by 10^−10 M CaM incubated with VIP in phospholipid micelles for 2 h at 4° C. (conjugation paper). A bandwidth of 1.0 nm and a step resolution of 0.5 nm were used to collect the average of 9 accumulations/sample at near UV range (200-260 nm).
According to this example the method of example 4 was repeated to determine the conformation of VIP fragments in saline and phospholipid micelles. CD spectra measurements were performed after incubation of VIP fragments with phospholipid micelles, at a molar concentration equivalent to VIP (i.e. 9 μg/ml for VIP10-28 fragment and 6 μg/ml for VIP1-12 fragment), for 30 min. A bandwidth of 1.0 nm and a step resolution of 0.5 nm were used to collect the average of 9 accumulations/sample at near UV range (200-260 nm). Specifically, CD spectra of human VIP fragment (1-12) and (10-28) in the presence of phospholipid micelles are shown in FIG. 5. […] These effects correlate well with the % helicity of VIP fragments determined in saline and in the presence of phospholipids (Table 1). […]

vasoactive intestinal peptide [VIP]
Conformation from CD spectrum in the presence of phospholipid micelles (SSM) (phospholipid micelles (SSM), room temperature): predominantly α-helix conformation
% Helicity (in the presence of) Phospholipids (37° C.): 67%
% Helicity (in the presence of) Phospholipids (room temperature): 27%
% Helicity (in the presence of) Saline (saline, 37° C.): 2%
% Helicity (in the presence of) Saline (saline, room temperature): 5%
Conformation from CD spectrum in saline (saline, room temperature): primarily a random coil structure

Source: US20110142884A1, “Materials and Methods for Making Improved Micelle Compositions” (The Board of Trustees of the University of Illinois, priority 2002, published 2011)
